{"source": "patent US20210371505A1", "about": "(Regeneron, published 2021)", "binders": {"B1": {"name": "H1H14611N2 (antibody, V domains shown)", "VH": "EVQLVESGGGLVKPGGSLRLSCAASGFTFSGFSMNWVRQVPGKGLEWVSSISTSGNYMYYADSVKGRFTISRDNAKKSFSLQMNSLRAEDSAIYYCARGGGYNWNLFDYWGQGSLVTVSS", "VL": "EIVLTQSPGTLSLSPGERATLSCRASQSLNSNYLAWYQQKPGQAPRLLIYGASSRATGIPDRFSGSGSGTDFTLTITRLESEDFAVYYCQQYGNSPLTFGGGTKVEIK"}}, "target": "Hemagglutinin of A/Wisconsin/67/2005 (H3N2) overexpressed on 3T3 cells (Influenza A virus A/Wisconsin/67/2005 …)", "test": "cell-based or functional assay", "data": [{"binder": "B1", "values": [{"measurement": "EC50, ADCC with human donor PBMCs (CytoTox-Glo)", "value": 0.146, "unit": "nM"}, {"measurement": "EC50, FcγRIIIA activation in the ADCC-Glo reporter bioassay (Promega)", "value": 0.871, "unit": "nM"}]}]}
